Laboratory results from patent US20060269550A1.
Where no end group is shown, it is not given here. The star is where a group is joined. Octanoyl = CCCCCCCC(=O)*

Key:
anti-hGhrelin Fab 2291 [1] = test: competitive ELISA; competitor at 0.2 µg/ml preincubated with Fab 2291 0.1 µg/ml, OD of Fab bound to BSA-hGhrelin wells
anti-hGhrelin Fab 2291 [2] = test: competitive ELISA; competitor at 5 µg/ml preincubated with Fab 2291 0.1 µg/ml, OD of Fab bound to BSA-hGhrelin wells
anti-hGhrelin Fab 2291 [3] = test: competitive ELISA; competitor at 1 µg/ml preincubated with Fab 2291 0.1 µg/ml, OD of Fab bound to BSA-hGhrelin wells

Sequence of anti-hGhrelin Fab 2291 (VH, as listed by the source, chain 1 of 2): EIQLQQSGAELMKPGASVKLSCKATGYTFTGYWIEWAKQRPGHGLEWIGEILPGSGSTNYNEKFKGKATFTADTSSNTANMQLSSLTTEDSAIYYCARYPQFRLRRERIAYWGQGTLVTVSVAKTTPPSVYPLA
Sequence of anti-hGhrelin Fab 2291 (VL, as listed by the source, chain 2 of 2): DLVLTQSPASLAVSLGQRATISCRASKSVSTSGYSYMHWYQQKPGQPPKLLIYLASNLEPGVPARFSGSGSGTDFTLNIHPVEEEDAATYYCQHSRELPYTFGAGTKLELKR

Ave. OD (490 nm) (anti-hGhrelin Fab 2291 [1])	Ave. OD (490 nm) (anti-hGhrelin Fab 2291 [2])	Ave. OD (490 nm) (anti-hGhrelin Fab 2291 [3])	Binder
0.607 OD (490 nm)	0.702 OD (490 nm)	0.69 OD (490 nm)	GSSFLSPEH(Octanoyl)QRVQQRKESKKPPAKLQPR [hGhrelin-His9-acylated]
0.633 OD (490 nm)	0.729 OD (490 nm)	0.663 OD (490 nm)	GSSFLSPEHQRVQQRKESKKPPAKLQPR [des-acyl-hGhrelin, full-length, non-acylated human ghrelin]
